Each block holds one binder with its values, some of them ahead of it.
Assays:
human properdin = target: T1, human properdin (human, UniProt P27918 28-469, biotinylated); test: ELISA on biotinylated truncated variants of human properdin, VHH-Fc at 10 µg/ml
T1 construct: Recombinant, made in house; tag not described; In the hemolysis assays the target is the properdin of human serum; also called human properdin-biotin; biotin human Properdin
Procedure: 96-well immunoplates were coated with 100 μl/well 1 μg/ml streptavidin and incubate at 4° C. overnight. Wells were washed with PBST for 3 times and blocked with 200 μl of 1% BSA/PBS at RT for 1 h. […] Plates were washed with PBST for 3 times, 100 μl/well 10 μg/ml VHH-Fcs were added and incubate at RT for 1 h. Plates were washed with PBST for 3 times and add 100 μl goat anti-human Fc-HRP (Sigma, A0170) diluted 1/5000 in 1% BSA/PBST to each well and incubate at RT for 1 h. Plates were then washed as before and add 100 μl TMB substrate and incubate at RT for 15 min. 100 μl per well stop solution was added to stop the reaction, and the plates were read with microplate reader at 450 nm.

[1] = target: T2, human transferrin (Sigma T3309) (human, UniProt P02787 20-698); test: flow cytometry on HEK293F-hTfR1 cells with human transferrin, pH 6.0
T2 construct: mature; same polypeptide; also called native human transferrin; hTf
Procedure: (§1) HEK293F-hTfR1 cells were prepared by transfecting hTfR1-expressing plasmid, with a GFP tag, into HEK293F cells. Stable pool was used for this assay. Briefly, the engineered HEK293F cells expressing hTfR1 were cultured with OPM-293 CD05 medium at 37° C., with 8% CO₂ and saturated humidity in cell shaker. […] The cells were washed twice by centrifugation at 300 g for 5 min at 4° C., before rabbit anti-OVA antibodies and a secondary anti-rabbit IgG-AF647 (all prepared in blocking buffer). The cells were scanned with CytoFLEX (Beckman).

[2] = target: T2, human transferrin (Sigma T3309); test: flow cytometry on HEK293F-hTfR1 cells with human transferrin, pH 7.4
Procedure: as §1

[3] = target: T3, human transferrin receptor 1 on HEK293F-hTfR1 cells (human, UniProt P02786 1-760); test: flow cytometry on HEK293F-hTfR1 cells with or without transferrin
T3 construct: whole, on cells
Procedure: as §1

[4] = target: T2, human transferrin (Sigma T3309); test: flow cytometry on HEK293F-hTfR1 cells with human transferrin, pH 7.4; grade by % binding (+++ ≥ 15%)
Procedure: as §1

[5] = target: T2, human transferrin (Sigma T3309); test: flow cytometry on HEK293F-hTfR1 cells with human transferrin, pH 7.4; grade by % binding (10% > + ≥ 5%)
Procedure: as §1

[6] = target: T2, human transferrin (Sigma T3309); test: flow cytometry on HEK293F-hTfR1 cells with human transferrin, pH 6.0; grade by % binding (10% > + ≥ 5%); non-specific binding column also +
Procedure: as §1

T1 sequence (P27918 28-469 limits assumed): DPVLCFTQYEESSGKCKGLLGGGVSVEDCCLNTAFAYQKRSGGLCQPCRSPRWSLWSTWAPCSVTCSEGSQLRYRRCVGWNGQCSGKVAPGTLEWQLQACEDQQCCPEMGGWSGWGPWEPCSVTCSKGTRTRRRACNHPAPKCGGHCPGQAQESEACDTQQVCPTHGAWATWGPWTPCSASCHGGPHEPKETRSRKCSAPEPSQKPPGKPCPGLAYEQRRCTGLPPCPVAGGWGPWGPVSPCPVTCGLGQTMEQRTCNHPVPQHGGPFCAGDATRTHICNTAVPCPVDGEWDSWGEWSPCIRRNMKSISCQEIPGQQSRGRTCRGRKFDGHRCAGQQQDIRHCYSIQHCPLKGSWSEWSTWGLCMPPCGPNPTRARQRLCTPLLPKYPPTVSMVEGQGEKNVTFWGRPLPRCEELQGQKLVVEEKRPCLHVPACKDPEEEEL
T2 sequence (P02787 20-698): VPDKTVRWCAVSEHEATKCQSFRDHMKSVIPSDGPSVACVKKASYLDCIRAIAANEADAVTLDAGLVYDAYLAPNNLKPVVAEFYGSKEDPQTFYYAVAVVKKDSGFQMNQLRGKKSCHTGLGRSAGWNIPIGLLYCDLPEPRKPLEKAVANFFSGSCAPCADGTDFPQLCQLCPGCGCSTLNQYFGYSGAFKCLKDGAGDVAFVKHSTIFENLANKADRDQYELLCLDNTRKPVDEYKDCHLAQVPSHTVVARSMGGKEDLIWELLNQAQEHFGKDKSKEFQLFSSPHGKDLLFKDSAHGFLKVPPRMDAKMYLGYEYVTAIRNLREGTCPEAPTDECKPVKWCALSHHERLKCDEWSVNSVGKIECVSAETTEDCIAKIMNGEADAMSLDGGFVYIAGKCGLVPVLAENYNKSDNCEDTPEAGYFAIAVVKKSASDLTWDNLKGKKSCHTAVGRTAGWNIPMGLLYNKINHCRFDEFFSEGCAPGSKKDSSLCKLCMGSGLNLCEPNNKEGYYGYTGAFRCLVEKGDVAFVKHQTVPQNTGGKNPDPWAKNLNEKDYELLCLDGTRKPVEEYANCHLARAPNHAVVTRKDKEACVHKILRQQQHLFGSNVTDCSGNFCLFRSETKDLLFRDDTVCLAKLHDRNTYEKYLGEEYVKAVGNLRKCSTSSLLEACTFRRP
T3 sequence (P02786 whole entry): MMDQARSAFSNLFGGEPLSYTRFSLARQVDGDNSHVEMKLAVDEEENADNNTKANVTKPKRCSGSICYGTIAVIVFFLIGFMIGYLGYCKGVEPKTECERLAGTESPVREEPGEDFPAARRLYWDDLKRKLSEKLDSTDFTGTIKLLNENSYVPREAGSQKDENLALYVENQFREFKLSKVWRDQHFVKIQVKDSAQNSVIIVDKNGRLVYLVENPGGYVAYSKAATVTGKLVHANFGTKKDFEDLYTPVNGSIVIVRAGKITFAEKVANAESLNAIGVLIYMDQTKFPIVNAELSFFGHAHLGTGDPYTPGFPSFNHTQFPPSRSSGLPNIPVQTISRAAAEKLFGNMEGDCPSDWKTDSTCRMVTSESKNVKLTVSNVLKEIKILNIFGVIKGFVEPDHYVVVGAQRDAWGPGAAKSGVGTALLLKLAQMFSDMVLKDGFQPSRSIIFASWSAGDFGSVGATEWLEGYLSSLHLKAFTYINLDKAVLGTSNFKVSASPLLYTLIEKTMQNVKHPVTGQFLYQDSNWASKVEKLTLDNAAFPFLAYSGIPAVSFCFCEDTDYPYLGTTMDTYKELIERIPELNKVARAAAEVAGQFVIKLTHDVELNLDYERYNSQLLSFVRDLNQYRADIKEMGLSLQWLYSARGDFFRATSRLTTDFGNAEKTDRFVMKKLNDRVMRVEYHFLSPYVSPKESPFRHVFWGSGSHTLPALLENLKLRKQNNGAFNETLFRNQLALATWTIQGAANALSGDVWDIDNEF

binding result (human properdin): binds
B1: SLN12075 VHH-Fc (Fc fusion)
VHH: EVQLVESGGGLVQPGGSLRLSCAASAYIYSSYCMGWFRQAPGKGLERVSVINSDGRTSYADSVKGRFTISRDNSKNTLYLQMNSLRAEDTAVYYCAAVILPPTDGMEYSCNYPAAEYNYWGQGTLVTVSS
notes: not shown: its position and linker are not fixed for the humanized single VHH

percent binding (flow cytometry, VHH/Tf on hTfR1-overexpressing cells, pH 6.0) [1]: < 5%
percent binding (flow cytometry, VHH/Tf on hTfR1-overexpressing cells, pH 7.4) [2]: < 5%
B2: SLN0066 VHH-OVA-His (negative control VHH) (VHH)
chain: HVQLVESGGGSVQAGGSLRLSCVASGIGHGFNNNCMGWFRQAPGKEREGVAAVYTGGGTPYYADSVKGRFTLSQDNAKNTLYLQMNGLDPEDTAMYYCVADIWRTYRCGAGDTTVFDYRGQGTLVTVSSGSIGAASMEFCFDVFKELKVHHANENIFYCPIAIMSALAMVYLGAKDSTRTQINKVVRFDKLPGFGDSIEAQCGTSVNVHSSLRDILNQITKPNDVYSFSLASRLYAEERYPILPEYLQCVKELYRGGLEPINFQTAADQARELINSWVESQTNGIIRNVLQPSSVDSQTAMVLVNAIVFKGLWEKAFKDEDTQAMPFRVTEQESKPVQMMYQIGLFRVASMASEKMKILELPFASGTMSMLVLLPDEVSGLEQLESIINFEKLTEWTSSNVMEERKIKVYLPRMKMEEKYNLTSVLMAMGITDVFSSSANLSGISSAESLKISQAVHAAHAEINEAGREVVGSAEAGVDAASVSEEFRADHPFLFCIKHIATNAVLFFGRCVSP
notes: not shown: His tag

binding result [3]: no binding (tested: 10 µg/mL)
percent binding (flow cytometry, VHH/Tf on hTfR1-overexpressing cells, pH 6.0) [1]: < 5%
percent binding (flow cytometry, VHH/Tf on hTfR1-overexpressing cells, pH 7.4) [4]: ≥ 15%
B3: SLN0042 VHH-OVA-His (VHH)
chain: DVQLVESGGGSVQAGGSLRLSCAASGYTRSFTCMGWFRQAPGKEREGVATINPGTGSTYYADSVKGRFSISQDNAKNTVYLQMNTLKPEDTAMYYCAATQLFGCGSLAKSLFGYWGQGTLVTVSSGSIGAASMEFCFDVFKELKVHHANENIFYCPIAIMSALAMVYLGAKDSTRTQINKVVRFDKLPGFGDSIEAQCGTSVNVHSSLRDILNQITKPNDVYSFSLASRLYAEERYPILPEYLQCVKELYRGGLEPINFQTAADQARELINSWVESQTNGIIRNVLQPSSVDSQTAMVLVNAIVFKGLWEKAFKDEDTQAMPFRVTEQESKPVQMMYQIGLFRVASMASEKMKILELPFASGTMSMLVLLPDEVSGLEQLESIINFEKLTEWTSSNVMEERKIKVYLPRMKMEEKYNLTSVLMAMGITDVFSSSANLSGISSAESLKISQAVHAAHAEINEAGREVVGSAEAGVDAASVSEEFRADHPFLFCIKHIATNAVLFFGRCVSP
notes: Tested as recombinant VHH-OVA-His; not shown: His tag

percent binding (flow cytometry, VHH/Tf on hTfR1-overexpressing cells, pH 7.4) [5]: 5 to 10%
percent binding (flow cytometry, VHH/Tf on hTfR1-overexpressing cells, pH 6.0) [6]: 5 to 10%
B4: SLN0062 VHH-OVA-His (VHH)
chain: QVQLVESGGGSVQSGGSLRLSCAASGYTFSRNCMGWFRQTPGKERERVATVYPGGGSTYYADSVKGRFTFSQDNAKNAIYLQMNTLKPEDTGMYYCAASRRIWSCGSGAGSYDYWGQGTQVTVSSGSIGAASMEFCFDVFKELKVHHANENIFYCPIAIMSALAMVYLGAKDSTRTQINKVVRFDKLPGFGDSIEAQCGTSVNVHSSLRDILNQITKPNDVYSFSLASRLYAEERYPILPEYLQCVKELYRGGLEPINFQTAADQARELINSWVESQTNGIIRNVLQPSSVDSQTAMVLVNAIVFKGLWEKAFKDEDTQAMPFRVTEQESKPVQMMYQIGLFRVASMASEKMKILELPFASGTMSMLVLLPDEVSGLEQLESIINFEKLTEWTSSNVMEERKIKVYLPRMKMEEKYNLTSVLMAMGITDVFSSSANLSGISSAESLKISQAVHAAHAEINEAGREVVGSAEAGVDAASVSEEFRADHPFLFCIKHIATNAVLFFGRCVSP
notes: as for B3

percent binding (flow cytometry, VHH/Tf on hTfR1-overexpressing cells, pH 7.4) [2]: < 5%
percent binding (flow cytometry, VHH/Tf on hTfR1-overexpressing cells, pH 6.0) [6]: 5 to 10%
B5: SLN0057 VHH-OVA-His (VHH)
chain: HVQLVESGGGSVQAGGSLRLSCAASGHTYSIYYMAWFRQAPGKEREGVAVIYRGGSTTYADSAKGRFTVSQDNGKNTVYLQMNSLKAEDTAMYYCAAAHVLHVSSLLPGGYPYWGQGTLVTVSSGSIGAASMEFCFDVFKELKVHHANENIFYCPIAIMSALAMVYLGAKDSTRTQINKVVRFDKLPGFGDSIEAQCGTSVNVHSSLRDILNQITKPNDVYSFSLASRLYAEERYPILPEYLQCVKELYRGGLEPINFQTAADQARELINSWVESQTNGIIRNVLQPSSVDSQTAMVLVNAIVFKGLWEKAFKDEDTQAMPFRVTEQESKPVQMMYQIGLFRVASMASEKMKILELPFASGTMSMLVLLPDEVSGLEQLESIINFEKLTEWTSSNVMEERKIKVYLPRMKMEEKYNLTSVLMAMGITDVFSSSANLSGISSAESLKISQAVHAAHAEINEAGREVVGSAEAGVDAASVSEEFRADHPFLFCIKHIATNAVLFFGRCVSP
notes: as for B3

binding result [3]: no binding (tested: 10 µg/mL)
percent binding (flow cytometry, VHH/Tf on hTfR1-overexpressing cells, pH 6.0) [1]: < 5%
B6: SLN0043 VHH-OVA-His (VHH)
chain: DVQLVESGGGSVQAGGSLRLSCAASGVTWSRDWMAWFRQAPGKEREGVAAFVPSIGSTFYVDSVKGRFTISQDNAKNTLFLQMNSLKPEDTAMYYCATDPLWGRKYGGSWSDPSEYNYWGQGTQVTVSSGSIGAASMEFCFDVFKELKVHHANENIFYCPIAIMSALAMVYLGAKDSTRTQINKVVRFDKLPGFGDSIEAQCGTSVNVHSSLRDILNQITKPNDVYSFSLASRLYAEERYPILPEYLQCVKELYRGGLEPINFQTAADQARELINSWVESQTNGIIRNVLQPSSVDSQTAMVLVNAIVFKGLWEKAFKDEDTQAMPFRVTEQESKPVQMMYQIGLFRVASMASEKMKILELPFASGTMSMLVLLPDEVSGLEQLESIINFEKLTEWTSSNVMEERKIKVYLPRMKMEEKYNLTSVLMAMGITDVFSSSANLSGISSAESLKISQAVHAAHAEINEAGREVVGSAEAGVDAASVSEEFRADHPFLFCIKHIATNAVLFFGRCVSP
notes: as for B3

percent binding (flow cytometry, VHH/Tf on hTfR1-overexpressing cells, pH 7.4) [5]: 5 to 10%
percent binding (flow cytometry, VHH/Tf on hTfR1-overexpressing cells, pH 6.0) [6]: 5 to 10%
B7: SLN0064 VHH-OVA-His (VHH)
chain: HVQLVESGGGSVQAGGSLRLSCAASGYSVSWFCMGWFRQAPGLEREGVAVIDVDSIARYGDSVKGRFTISQGNSKDTVYLQMNGLKPEDTAMYYCAAKTERQCRWNWMDWRTYDYPHWGQGTQVTVSSGSIGAASMEFCFDVFKELKVHHANENIFYCPIAIMSALAMVYLGAKDSTRTQINKVVRFDKLPGFGDSIEAQCGTSVNVHSSLRDILNQITKPNDVYSFSLASRLYAEERYPILPEYLQCVKELYRGGLEPINFQTAADQARELINSWVESQTNGIIRNVLQPSSVDSQTAMVLVNAIVFKGLWEKAFKDEDTQAMPFRVTEQESKPVQMMYQIGLFRVASMASEKMKILELPFASGTMSMLVLLPDEVSGLEQLESIINFEKLTEWTSSNVMEERKIKVYLPRMKMEEKYNLTSVLMAMGITDVFSSSANLSGISSAESLKISQAVHAAHAEINEAGREVVGSAEAGVDAASVSEEFRADHPFLFCIKHIATNAVLFFGRCVSP
notes: as for B3

percent binding (flow cytometry, VHH/Tf on hTfR1-overexpressing cells, pH 7.4) [2]: < 5%
percent binding (flow cytometry, VHH/Tf on hTfR1-overexpressing cells, pH 6.0) [6]: 5 to 10%
B8: SLN0059 VHH-OVA-His (VHH)
chain: HVQLVESGGGSVQSGGSLRLSCAASGITISNYYMTWFRQAPGKEREGVAGLTRADVTLYADSVKGRFTISRDNAKNTLYLQMNSLKPEDTAMYYCAAADRFRVGLREADFSAWGQGTQVTVSSGSIGAASMEFCFDVFKELKVHHANENIFYCPIAIMSALAMVYLGAKDSTRTQINKVVRFDKLPGFGDSIEAQCGTSVNVHSSLRDILNQITKPNDVYSFSLASRLYAEERYPILPEYLQCVKELYRGGLEPINFQTAADQARELINSWVESQTNGIIRNVLQPSSVDSQTAMVLVNAIVFKGLWEKAFKDEDTQAMPFRVTEQESKPVQMMYQIGLFRVASMASEKMKILELPFASGTMSMLVLLPDEVSGLEQLESIINFEKLTEWTSSNVMEERKIKVYLPRMKMEEKYNLTSVLMAMGITDVFSSSANLSGISSAESLKISQAVHAAHAEINEAGREVVGSAEAGVDAASVSEEFRADHPFLFCIKHIATNAVLFFGRCVSP
notes: as for B3

binding result (human properdin): binds
B9: SLN12083 VHH-Fc (Fc fusion)
VHH: EVQLVESGGGLVQPGGSLRLSCAASEYTSSSYCMAWIRQAPGKGLEGVAAIDTDGSTSYTDSVKGRFTISRDNSKNTLYLQMNSLRAEDTAVYYCAAAPWLLAYGDYCVTRPDFGEWGQGTLVTVSS
notes: as for B1

binding result (human properdin): binds
B10: SLN12068 VHH-Fc (Fc fusion)
VHH: EVQLVESGGGLVQPGGSLRLSCAAFEYYYCMGWFRQAPGKGLEGVASFDTSDGSKYYADSVKGRFTISKDNSKNTLYLQMNSLRAEDTAVYYCAARPFYVGGTCLPRLTDFSIWGQGTLVTVSS
notes: as for B1
